# Measured values taken from FireProtDB (doi:10.1111/j.1432-1033.1992.tb16932.x).
# Details: Escherichia coli (strain K12), CD, reversible: yes, whole UniProt chain shown
# [1] = pH 3, Thermal, glycine-HCl 10 mM
# [2] = pH 5.5, 25 °C, Urea, Sodium acetate 10 mM, NaCl 0.1 M
protein,measurement,setting,value
"Ribonuclease HI wild type, P0A7Y4 (protein) MLKQVEIFTDGSCLGNPGPGGYGAILRYRGREKTFSAGYTRTTNNRMELMAAIVALEALKEHCEVILSTDSQYVRQGITQWIHNWKKRGWKTADKKPVKNVDLWQRLDAALGQHQIKWEWVKGHAGHPENERCDELARAAAMNPTLEDTGYQVEV",Tm,[1],49.8 °C
same,unfolding enthalpy (van 't Hoff),[1],98.1 kcal/mol
same,denaturant m value,[2],1.96 kcal/mol/M
same,denaturant midpoint (higher = more stable),[2],5.01 M
same,unfolding free energy,[2],9.81 kcal/mol
